# Measurements: patent publication US20240190923A1
# “And” between values parts separate entries of the source, which are not always exact repeats. Equal entries are not always repeated.
# B1: C. atrox FETUA-3 (recombinant, tag-free) (protein)
# chain: FQLAGNMDCNTKGTKDWADIGVRYINEHKLHGYKQALNIIKIFRLLPSDGRSVIFHFKLNLLETECHVLDPTPLENCTVRQQNNHAVEMDCNVRIIHDIATFEDEVFVKCNSTPDSVENVRRNCPKCPILLPPNDPHVIDSVEYVLNKHNEKLSGHIYEVLEISRGQHKYEPEAFYVEFAIVEVNCTAEEAHDDHHDCHPNTDGENHIGFCRATVFRSHASLEKPKEEMFESDCVILHVKKGHAYSHLIEHHVGKYNTSPGRNSTDECVVQCPVAFVNKEVPKDISDHDTPPVEGCPGKALHFQL
# B2: C. atrox FETUA-5 (recombinant, tag-free) (protein)
# chain: YMVREEDLNCNSKAAKYRADQAVRYINEHNLHGYKQALNIIKTIRLLPSDGLLVVIYLKLNLLETECHVLDPTPVENCTVRQQNNHAVETDCDVKVIYNIETFKDEFLVKCHSTPGSVEKILQDCPKCPILLSLSDPHVVDSVEYVLNKHNEQLSGHVYEVLEISRGQHKYEPEAFYVEFAIVEVNCTAQEAHDDHHHCHPNTAGENHIAFCRATVFRSYASLEKPKDEKFESDCVILHVKEGHAHSHLIEHHTGKHSTSPGHNSTVLNLAHSHNHTSASHESHSHEHVMEVPVAVANREDPTDIPHHHTPSVDGCPGKVLHFKL
# Experiments:
# Assay in all cases: cell-based or functional assay
# MDC-4 (Crotalus atrox) = MDC-4 (Crotalus atrox) (UniProt Q90282)
# [1] = biological target: whole C. atrox venom (SVMP proteolytic activity)
# [2] = biological target: whole C. atrox venom (SVMP proteolytic activity); remark: listed apart in the source
# UniProt Q90282, sequence (Q90282 190-609 limits assumed): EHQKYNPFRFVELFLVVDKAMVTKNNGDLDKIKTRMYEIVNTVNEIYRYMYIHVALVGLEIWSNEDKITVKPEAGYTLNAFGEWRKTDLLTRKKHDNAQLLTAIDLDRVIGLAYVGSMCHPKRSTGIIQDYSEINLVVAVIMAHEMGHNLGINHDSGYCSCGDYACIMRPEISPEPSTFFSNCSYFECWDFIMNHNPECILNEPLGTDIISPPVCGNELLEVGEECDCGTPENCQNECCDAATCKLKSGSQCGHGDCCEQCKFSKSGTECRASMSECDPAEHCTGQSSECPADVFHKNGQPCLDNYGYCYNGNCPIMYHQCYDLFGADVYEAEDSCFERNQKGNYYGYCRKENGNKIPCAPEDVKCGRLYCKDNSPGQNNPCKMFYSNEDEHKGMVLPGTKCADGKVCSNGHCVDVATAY
Molecule,amount for ˜50% neutralization of 2 µg MDC-4 proteolysis of Azocoll (MDC-4 (Crotalus atrox)) [µg],weight of CroFab relative to FETUA-3 for ˜50% neutralization of MDC-4 (MDC-4 (Crotalus atrox)) [fold],weight of CroFab relative to FETUA-3 for approximately 50% neutralization of whole venom SVMP activity [1] [fold],inhibition of whole venom proteolysis of Azocoll collagen substrate (10 µg venom) [2]
CroFab antivenom (crotalidae polyvalent immune fab ovine),12.1,16,18,–
B1,–,–,–,2.5 µg and 5 µg
B2,–,–,–,20 µg
